From EP0904107B1

Experiments:
[1] = molecular target: FcRn of the neonatal mouse intestine (mouse) (UniProt Q61559); assay: cell-based or functional assay
[2] = molecular target: recombinant soluble mouse FcRn (mouse) (UniProt Q61559); assay: inhibition of 125I-sFcRn binding to murine IgG1-Sepharose; molar ratio of inhibitor/FcRn 1/500
[3] = molecular target: recombinant soluble mouse FcRn (mouse) (UniProt Q61559); assay: inhibition of 125I-sFcRn binding to murine IgG1-Sepharose; molar ratio of inhibitor/FcRn 1/1000
[4] = molecular target: recombinant soluble mouse FcRn (mouse) (UniProt Q61559); assay: SPR (BIAcore 2000), FcRn immobilised on CM5 chip, purified Fc-hinge fragment in flow, pH 6.0

Substance | Inhibition of transmission (%) [1] | % inhibition [2] | % inhibition [3] | Kd [4] | koff [4] | kon [4]
bovine serum albumin (from UniProt P02769 25-607) | 8.9% |  |  |  |  | 
murine IgG1 (complete glycosylated IgG1 molecule) (antibody) | 51.4% | 24.7% | 45.6% |  |  | 
Fc-hybrid: heterodimer of WT Fc-hinge and HQ-310/HN-433 mutant | 21.5% |  |  |  |  | 
HQ-310/HN-433 mutant Fc-hinge fragment | 5.4% | 0.2% | 4% |  |  | 
Fc fragment produced by papain digestion of murine IgG1 (from UniProt P01868 98-324) | 62.5% |  |  |  |  | 

Next, values leading:

Inhibition of transmission (%) [1] | % inhibition [2] | % inhibition [3] | Kd [4] | koff [4] | kon [4] | Substance
55.3% | 18.4% | 34.1% | 7.44 nM | 0.00461 s⁻¹ | 620000 M⁻¹ s⁻¹ | wild type (WT) Fc-hinge fragment derived from murine IgG1
8.9% |  |  |  |  |  | HQ-310 mutant Fc-hinge fragment
20.2% | 2.3% | 6.5% |  |  |  | I-253 mutant Fc-hinge fragment
44.4% |  |  |  |  |  | HN-433 mutant Fc-hinge fragment
